Molecular target: sodium taurocholate co-transporting receptor (NTCP), expressed on HepG2 cells (human) (UniProt Q14973)
Experiment: cell-based or functional assay

Chain of UniProt Q14973 (Q14973 whole entry): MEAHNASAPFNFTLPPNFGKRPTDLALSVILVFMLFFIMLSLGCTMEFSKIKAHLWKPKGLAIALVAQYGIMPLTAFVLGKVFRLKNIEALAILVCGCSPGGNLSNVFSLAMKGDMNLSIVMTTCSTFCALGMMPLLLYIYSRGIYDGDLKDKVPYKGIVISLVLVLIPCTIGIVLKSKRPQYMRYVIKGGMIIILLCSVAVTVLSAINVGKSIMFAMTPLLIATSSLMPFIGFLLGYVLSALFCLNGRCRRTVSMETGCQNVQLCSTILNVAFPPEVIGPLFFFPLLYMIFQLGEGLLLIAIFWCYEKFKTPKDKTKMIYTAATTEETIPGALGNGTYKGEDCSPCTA

With “CAR-PreS1 construct (signal peptide-PreS1-CD8 hinge-CD8 Transmembrane-CD28-4-1BB-CD3zeta-T2A-EGFP), expressed on T cells” the IFN gamma expression of CAR-PreS1 T cells co-cultured with HepG2 cells expressing or lacking NTCP was 3 fold and the degranulation (CD107a expression) of CAR-PreS1 T cells co-cultured with HepG2 cells expressing or lacking NTCP was 2 fold.

Reference: US20220152108A1
